Test results taken from publication PMC11489326, “Characterization of lignin-degrading enzyme PmdC, which catalyzes a key step in the synthesis of polymer precursor 2-pyrone-4,6-dicarboxylic acid” (The Journal of Biological Chemistry, 2024).

Target: CHMS dehydrogenase PmdC from Comamonas testosteroni (Comamonas testosteroni)
Experiment: SEC; purified PmdC (wild type and mutants) in solution; conditions of the run not told in the text shown (Figs. S5, S12)

stoichiometry N: 2
Substance: CHMS dehydrogenase PmdC from Comamonas testosteroni (enzyme)
